Test results from patent US20130316929A1 (Daiichi Sankyo, published 2013).

Legend:
Recombinant Human TNF-α = biological target: T1, Recombinant Human TNF-α (human, UniProt P01375 77-233); assay: phage panning and phage ELISA on hTNF-α
T1 construct: also called hTNF-α

[1] = biological target: T2, Recombinant Human VEGF165 (human, UniProt P15692-4 27-191); assay: phage panning and phage ELISA on hVEGF
T2 construct: Isoform VEGF165; also called hVEGF

[2] = biological target: T3, Recombinant Human EphA2, CF (human, UniProt P29317 25-534); assay: phage ELISA, hEphA2 immobilized on a Maxisorp plate, two-fold dilutions of phage stock, anti-M13-HRP, OD405 nm [A) (1]
T3 construct: Bought recombinant protein; also called hEphA2; recombinant hEphA2
T3 sequence (P29317 25-534 limits assumed): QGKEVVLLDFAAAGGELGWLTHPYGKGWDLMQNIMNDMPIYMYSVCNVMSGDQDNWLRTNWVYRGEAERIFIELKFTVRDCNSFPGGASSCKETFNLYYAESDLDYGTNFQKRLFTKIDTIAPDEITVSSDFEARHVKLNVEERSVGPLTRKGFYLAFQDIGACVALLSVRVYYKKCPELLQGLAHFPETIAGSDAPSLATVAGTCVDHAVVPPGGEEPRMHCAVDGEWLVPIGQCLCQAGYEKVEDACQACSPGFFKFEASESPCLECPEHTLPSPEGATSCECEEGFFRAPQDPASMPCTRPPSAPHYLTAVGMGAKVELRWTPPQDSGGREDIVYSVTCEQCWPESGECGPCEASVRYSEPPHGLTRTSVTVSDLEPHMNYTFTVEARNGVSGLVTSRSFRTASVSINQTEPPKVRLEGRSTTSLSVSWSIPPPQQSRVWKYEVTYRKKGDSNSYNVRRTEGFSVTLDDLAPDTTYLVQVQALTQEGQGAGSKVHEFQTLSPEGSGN
Procedure: (§1) As to 3 clones (α-EphA2 #1 to #3: corresponding to SEQ ID NOs: 3 to 5, respectively, in the Sequence Listing and to Nos. 2 to 4, respectively in FIG. 4) selected from the Escherichia coli colonies after the final round of panning with hEphA2 as a target molecule, an Escherichia coli suspension with OD_{600 nm}=0.3 was prepared using 2×YT/Amp/1% Glu. The Escherichia coli cells of each clone were shake-cultured at 37° C. and allowed to grow until OD_{600 nm}=0.5. A sufficient amount of helper phages M13K07 was added thereto to infect the cells at 37° C. for 30 minutes. After addition of 2×YT/Amp/Kan/0.25 mM IPTG, the helper phage-infected Escherichia coli was shake-cultured overnight at 22° C. 20% PEG/2.5 M NaCl solution was added to the recovered culture supernatant to precipitate phages. The precipitated phages were suspended in PBS. This phage stock solution and a series of two-fold dilutions with PBS were used in phage ELISA. An Escherichia coli TG-1 strain having a pCANTAB 5E vector containing the wild-type TACI_d2 gene was also subjected to the same operation as above to prepare phages.
(§2) TACI_d2 mutant-displaying phages were added to these Maxisorp plates and reacted for 2 hours. Each Maxisorp plate was washed with TBST. Then, an Anti-M13 antibody diluted 5000-fold was added thereto. After washing of the Maxisorp plate with TBST again, the amount of a phage bound with the protein solid-phase immobilized on the plate was detected as absorbance at a wavelength of 405 nm using ELISA POD.

[3] = biological target: T4, human EphA2 expressed on cell surface (human, UniProt P29317 24-976); assay: flow cytometry, phage stock on transfected HEK293T cells, anti-M13 antibody and fluorescein anti-mouse IgG, FL1 [A) (1]
T4 construct: whole, on cells; also called human EphA2-expressing cells
T4 sequence (P29317 24-976): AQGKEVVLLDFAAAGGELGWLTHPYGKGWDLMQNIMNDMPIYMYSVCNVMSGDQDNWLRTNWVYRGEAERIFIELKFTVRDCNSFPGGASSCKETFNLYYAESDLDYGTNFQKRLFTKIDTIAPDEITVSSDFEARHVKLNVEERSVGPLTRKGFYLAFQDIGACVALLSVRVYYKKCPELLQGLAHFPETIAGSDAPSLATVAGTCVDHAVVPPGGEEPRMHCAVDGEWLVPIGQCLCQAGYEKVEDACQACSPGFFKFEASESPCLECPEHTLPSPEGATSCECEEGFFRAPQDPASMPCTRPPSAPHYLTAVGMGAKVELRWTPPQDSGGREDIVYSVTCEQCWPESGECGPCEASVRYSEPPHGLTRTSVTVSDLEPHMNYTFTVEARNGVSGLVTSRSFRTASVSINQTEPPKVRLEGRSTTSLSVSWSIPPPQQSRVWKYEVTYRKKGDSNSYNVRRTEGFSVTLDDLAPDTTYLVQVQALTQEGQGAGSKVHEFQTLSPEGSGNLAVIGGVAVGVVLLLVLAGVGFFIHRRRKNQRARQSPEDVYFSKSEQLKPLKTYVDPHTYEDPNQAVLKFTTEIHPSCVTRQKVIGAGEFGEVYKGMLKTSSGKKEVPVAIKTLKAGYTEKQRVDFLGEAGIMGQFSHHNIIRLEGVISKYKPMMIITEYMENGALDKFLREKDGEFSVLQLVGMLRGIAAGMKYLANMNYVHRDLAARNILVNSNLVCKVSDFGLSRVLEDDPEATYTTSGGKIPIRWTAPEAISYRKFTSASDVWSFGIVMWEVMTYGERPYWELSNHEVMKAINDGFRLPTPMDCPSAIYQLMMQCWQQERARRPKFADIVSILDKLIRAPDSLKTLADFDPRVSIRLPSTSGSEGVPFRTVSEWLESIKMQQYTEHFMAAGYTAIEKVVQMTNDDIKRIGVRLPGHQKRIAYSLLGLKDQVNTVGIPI
Procedure: as §1, with “The” for “As to 3 clones (α-EphA2 #1 to #3: corresponding to SEQ ID NOs: 3 to 5, respectively, in the Sequence Listing and to Nos. 2 to 4, respectively in FIG. 4) selected from the Escherichia coli colonies after the final round of panning with hEphA2 as a target molecule, an Escherichia coli suspension with OD_{600 nm}=0.3 was prepared using 2×YT/Amp/1% Glu. The”
(§3) The transfected cells were recovered. The recovered cells were suspended in a FACS buffer (PBS containing 5% FBS) and applied to a nylon mesh. The solution was dispensed in an amount of 5×10⁵ cells/well to 96 Well Cell Culture Cluster Round Bottom With Lid (manufactured by Costar, Corning Inc.) and centrifuged to remove a supernatant. The phage stock solution prepared in the paragraph 1) of Example 4 was added to the resulting cells at a concentration of 50 μL/well, and the mixture was left standing at 4° C. for 30 minutes. […] Fluorescently stained cells were detected.

[4] = biological target: T2, Recombinant Human VEGF165; assay: SPR, Biacore 3000, hVEGF immobilized on sensor chip, mutant applied at various concentrations
Excerpt: Examples of the determination-calculation system of surface plasmon resonance can include, but not limited to, Biacore system (GE Healthcare Japan Corp.). Procedures for the method using Biacore system are as follows: target molecules are immobilized onto a sensor chip of Biacore system by amine coupling; the target molecules are contacted with peptides at a plurality of peptide concentrations; the interaction therebetween is detected by surface plasmon resonance; a series of association and dissociation reactions is drawn in a sensorgram with time as the abscissa against the amount of binding (RU) as the ordinate; the sensorgram drawn at the plurality of peptide concentrations is fit to a 1:1 Langmuir model using BIAevaluation software (manufactured by GE Healthcare Japan Corp.) to calculate various rate parameters; and the dissociation constant is calculated from various rate parameters thus calculated.
The gene of the hVEGF-binding TACI_d2 mutant (No. 9 in FIG. 4: SEQ ID NO: 10 in the Sequence Listing) obtained in Example 2 was amplified by PCR and inserted to a vector pET-32a for expression in Escherichia coli (Novagen, Merck KGaA). […] The affinity of the mutant was determined by a surface plasmon resonance method using Biacore 3000 (GE Healthcare Japan Corp.). […] The dissociation constant of the mutant for hVEGF was determined from the obtained sensorgram.

[5] = biological target: T5, Recombinant Human EGF R/Fc Chimera, CF (human, UniProt P00533 25-645; P01857 100-330 = IgG part); assay: phage panning and phage ELISA on hEGFR/Fc (TACI_d2 mutant binding to the extracellular domain of human EGFR)
T5 construct: range 25-645;range 100-330; R&D systems product; also called hEGFR/Fc

[6] = biological target: T4, human EphA2 expressed on cell surface; assay: flow cytometry, phage stock on transfected HEK293T cells, anti-M13 antibody and fluorescein anti-mouse IgG, FL1 [A) (2]
Procedure: as §1, with “The” for “As to 3 clones (α-EphA2 #1 to #3: corresponding to SEQ ID NOs: 3 to 5, respectively, in the Sequence Listing and to Nos. 2 to 4, respectively in FIG. 4) selected from the Escherichia coli colonies after the final round of panning with hEphA2 as a target molecule, an Escherichia coli suspension with OD_{600 nm}=0.3 was prepared using 2×YT/Amp/1% Glu. The”
as §3

[7] = biological target: T6, IgG-Free, Protease-Free Bovine Serum Albumin (bovine, UniProt P02769 25-607); assay: phage ELISA, BSA immobilized on a Maxisorp plate, two-fold dilutions of phage stock, anti-M13-HRP, OD405 nm [A) (2]
T6 construct: also called BSA
T6 sequence (P02769 25-607 limits assumed): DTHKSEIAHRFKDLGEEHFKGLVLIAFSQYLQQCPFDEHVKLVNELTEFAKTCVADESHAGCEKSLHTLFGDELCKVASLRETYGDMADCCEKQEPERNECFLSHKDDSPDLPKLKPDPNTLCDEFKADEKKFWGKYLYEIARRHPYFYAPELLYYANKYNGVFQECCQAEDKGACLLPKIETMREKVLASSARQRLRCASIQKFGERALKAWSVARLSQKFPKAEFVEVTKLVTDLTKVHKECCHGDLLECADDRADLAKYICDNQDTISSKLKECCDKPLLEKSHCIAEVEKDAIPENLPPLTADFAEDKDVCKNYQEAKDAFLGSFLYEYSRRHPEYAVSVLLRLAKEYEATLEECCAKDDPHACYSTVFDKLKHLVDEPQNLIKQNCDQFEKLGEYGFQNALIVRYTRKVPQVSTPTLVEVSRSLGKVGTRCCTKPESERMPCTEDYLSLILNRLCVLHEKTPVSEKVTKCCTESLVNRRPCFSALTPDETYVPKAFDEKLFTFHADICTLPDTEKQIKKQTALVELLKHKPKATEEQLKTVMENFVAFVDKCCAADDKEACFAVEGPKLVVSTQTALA
Procedure: as §1
as §2, with “Each Maxisorp plate was washed with TBST. Then, an Anti-M13 antibody diluted 5000-fold was added thereto.” left out

[8] = biological target: T4, human EphA2 expressed on cell surface; assay: flow cytometry, phage stock on transfected HEK293T cells, anti-M13 antibody and fluorescein anti-mouse IgG, FL1 [B) (4]
Procedure: as §1, with “The” for “As to 3 clones (α-EphA2 #1 to #3: corresponding to SEQ ID NOs: 3 to 5, respectively, in the Sequence Listing and to Nos. 2 to 4, respectively in FIG. 4) selected from the Escherichia coli colonies after the final round of panning with hEphA2 as a target molecule, an Escherichia coli suspension with OD_{600 nm}=0.3 was prepared using 2×YT/Amp/1% Glu. The”
as §3

T1 sequence (P01375 77-233 limits assumed): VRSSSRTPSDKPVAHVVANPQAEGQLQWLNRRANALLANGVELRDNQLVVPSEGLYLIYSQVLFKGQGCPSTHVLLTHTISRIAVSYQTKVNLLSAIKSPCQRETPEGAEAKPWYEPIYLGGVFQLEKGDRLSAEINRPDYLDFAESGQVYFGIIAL
T2 sequence (P15692 other isoform, or with tags, fused parts or gaps limits assumed): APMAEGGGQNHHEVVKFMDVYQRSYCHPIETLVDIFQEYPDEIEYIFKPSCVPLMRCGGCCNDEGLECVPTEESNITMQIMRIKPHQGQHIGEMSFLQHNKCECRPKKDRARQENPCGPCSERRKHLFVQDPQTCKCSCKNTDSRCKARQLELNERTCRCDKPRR

## SLSCRKEQGKSYTSEWFDCASCASKYGKHPLVCAYFCEN (designed binder) [human TNFα-binding peptide (3)]
Recombinant Human TNF-α
  binding result: binds

## SLSCRKEQGKQYMAGHFDCNSCASRYGHHPLMCAYFCEN (designed binder) [human TNFα-binding peptide (1)]
Recombinant Human TNF-α
  binding result: binds

## SLSCRKEQGKWYMTWESDCKSCASWCGSHPFDCAYFCEN (designed binder) [human VEGF-binding peptide (1)]
[1]
  binding result: binds

## SLSCRKEQGKQYLLREWDCDSCASECGSHPHYCAYFCEN (designed binder, also called α-EphA2 #1) [α-EphA2 TACI_d2 #1]
[2]
  binding result: binds
[3]
  binding result: binds

B1: hVEGF-binding TACI_d2 mutant (No. 9 in FIG. 4), purified monomer (designed binder)
chain: SLSCRKEQGKMYDLYGFDCRSCASMCGKHPDLCAYFCEN
notes: Expressed from pET-32a in E. coli Origami B; thioredoxin tag and His tag removed by thrombin cleavage; monomer peak of size exclusion chromatography used; also called the mutant
[4]
  Kd: 14 µM

## SLSCRKEQGKMYDLYGFDCRSCASMCGKHPDLCAYFCEN (designed binder, The purified free form is m26) [human VEGF-binding peptide (2), phage-displayed]
[1]
  binding result: binds

## SLSCRKEQGKSYGAIMYDCSSCASYCGEHPWHCAYFCEN (designed binder) [human EGFR-binding peptide (1)]
[5]
  binding result: binds

## SLSCRKEQGKEYGAIAWDCSSCASYCGAHPFECAYFCEN (designed binder) [human EGFR-binding peptide (2)]
[5]
  binding result: binds

## SLSCRKEQDKTYIEYGFDCRSCASGCGGHPLMCAYFCEN (designed binder) [human TNFα-binding peptide (2)]
Recombinant Human TNF-α
  binding result: binds

## SLSCRKEQGKMYLLKEWDCASCASACGNHPHYCAYFCEN (designed binder, also called α-EphA2 #2) [α-EphA2 TACI_d2 #2]
[2]
  binding result: binds
[6]
  binding result: binds

## SLSCRKEQGKMYMVWTQDCKSCASWCGAHPVACAYFCEN (designed binder) [human VEGF-binding peptide (3)]
[1]
  binding result: binds

## SLSCRKEQGKDYMVFGQDCHSCASWCGKHPVACAYFCEN (designed binder) [human VEGF-binding peptide (6)]
[1]
  binding result: binds

## SLSCRKEQGKFYDHLLRDCISCASICGQHPKQCAYFCENKLR (receptor, UniProt O14836 68-109, looked up, also called WT) [wild-type TACI_d2]
[7]
  binding result: no binding
[2]
  binding result: no binding
[8]
  binding result: no binding

## SLSCRKEQGKIYNQYGFDCKSCASWCGKHPDMCAYFCEN (designed binder) [human VEGF-binding peptide (4)]
[1]
  binding result: binds

## SLSCRKEQGKHYLLKEYDCDSCASECGYHPDYCAYFCEN (designed binder, also called α-EphA2 #3) [α-EphA2 TACI_d2 #3]
[2]
  binding result: binds

## SLSCRKEQGKNYIHQQWDCASCASECGGHPNYCAYFCEN (designed binder) [human EGFR-binding peptide (3)]
[5]
  binding result: binds

## SLSCRKEQGKIYMTWHDDCHSCASLCGSHPLFCAYFCEN (designed binder) [human VEGF-binding peptide (5)]
[1]
  binding result: binds
